Laboratory results: the Human Domainome abundance scans (Beltran et al. 2025)
± gives the uncertainty stated by the source.

B1: Pituitary-specific positive transcription factor 1, residues 130 to 198; numbered along this chain, P28069 (parent)
chain: RELEKFANEFKVRRIKLGYTQTNVGEALAAVHGSEFSQTTICRFENLQLSFKNACKLKAILSKWLEEAE

Variants of: B1
Assay: abundance fitness (aPCA) (normalised: wild type 0, dead -1); higher = more abundant; growth selection in yeast, the domain comes from the species named
Conditions: Homo sapiens

Point of comparison: RELEKFANEFKVRRIKLGYTQTNVGEALAAVHGSEFSQTTICRFSNLQLSFKNACKLKAILSKWLEEAE, abundance fitness -0.92 ± 0.1. Against it:
- RELEKFANEFKVRRIKLGYTQTNVGEALAADHGSEFSQTTICRFENLQLSFKNACKLKAILSKWLEEAE — higher, -0.462 ± 0.1
- RELEKFANEFKVRRIKLGYTQTNVGEALAAVHGSEFSQTTICRFENLQLSFKNACKLKAILSKWGEEAE — within error, -0.791 ± 0.14
- RELEKFANEFKVRRIKLGYTQTNVGEALAAVHGSEFSQTTICRFENLQLSFKNACKLKAILSKSLEEAE — within error, -0.722 ± 0.2
- RELEKFANEFKVRRIKLGYTQTNVGEALAAVHGSEFSQTTGCRFENLQLSFKNACKLKAILSKWLEEAE — within error, -0.976 ± 0.27
- RELEKFANEFKVRRIKLGYTQTNVGEALAAVHGSEFSQTTICRFENLQLSFANACKLKAILSKWLEEAE — higher, 0.002 ± 0.046
- RELEKFGNEFKVRRIKLGYTQTNVGEALAAVHGSEFSQTTICRFENLQLSFKNACKLKAILSKWLEEAE — within error, -0.885 ± 0.16
- RELEKFANEFKVRRIKLGYTQTNVGEALAAVHGSEFSQTTICRFENLQLSFKNACKLKAALSKWLEEAE — higher, -0.281 ± 0.073
- RELEKFANEFKVRRVKLGYTQTNVGEALAAVHGSEFSQTTICRFENLQLSFKNACKLKAILSKWLEEAE — higher, -0.219 ± 0.077
- RELEKFANEFKVRRIKLGYTQTNVGEALAAVHGSEFSQPTICRFENLQLSFKNACKLKAILSKWLEEAE — higher, -0.387 ± 0.14
- RELEKFANEFKVRRIKLGYTQVNVGEALAAVHGSEFSQTTICRFENLQLSFKNACKLKAILSKWLEEAE — higher, -0.328 ± 0.11
- LELEKFANEFKVRRIKLGYTQTNVGEALAAVHGSEFSQTTICRFENLQLSFKNACKLKAILSKWLEEAE — higher, -0.306 ± 0.37
- RELEKFANEFKVRRIKLGYTQTNVGEALAAVHGSEQSQTTICRFENLQLSFKNACKLKAILSKWLEEAE — higher, -0.517 ± 0.097
- RELEKFANEFKVRRIKLFYTQTNVGEALAAVHGSEFSQTTICRFENLQLSFKNACKLKAILSKWLEEAE — within error, -0.681 ± 0.21
- RELEKFANEFKVRRIKLGYTQTNVGEALAAVHGSEFSQTTICRFENLQLSFKNACKLKAILSKWMEEAE — higher, -0.374 ± 0.075
- RELEKFANEFKVRRIKLGYTQTNVGEALAAVHGSEFSQTTICRFENLQLSFKNACKLKAILSKWYEEAE — within error, -0.833 ± 0.18
- RELRKFANEFKVRRIKLGYTQTNVGEALAAVHGSEFSQTTICRFENLQLSFKNACKLKAILSKWLEEAE — higher, -0.229 ± 0.058
- RELEKFANEFKVRRIKLGYTQTNVGEALAAVHGSEFSQTTICRFENLQLTFKNACKLKAILSKWLEEAE — higher, -0.206 ± 0.082
- RELEKFANEFKVRRIKLGYHQTNVGEALAAVHGSEFSQTTICRFENLQLSFKNACKLKAILSKWLEEAE — within error, -1.05 ± 0.43
- RELEKFANEFKVRRYKLGYTQTNVGEALAAVHGSEFSQTTICRFENLQLSFKNACKLKAILSKWLEEAE — within error, -0.761 ± 0.16
- RELEKFANEFKVRRIKLGYTQTNVGEALAAVHGSEFSQTTICRFENLCLSFKNACKLKAILSKWLEEAE — higher, -0.586 ± 0.12
- RELEKFDNEFKVRRIKLGYTQTNVGEALAAVHGSEFSQTTICRFENLQLSFKNACKLKAILSKWLEEAE — within error, -0.783 ± 0.15
- RELEKFANEFKVRRIKLGYTQNNVGEALAAVHGSEFSQTTICRFENLQLSFKNACKLKAILSKWLEEAE — higher, -0.063 ± 0.097
- RELEKFANEFKVRRIKLGYTQTNVGEALAAVHGSEFSQTTICRFENLQLSQKNACKLKAILSKWLEEAE — higher, -0.061 ± 0.1
- RELEKFANEFKVRRIKLGYTQTNVGEALAAVHGSEFSQTTICRFENLQLSFKNACKLKAIKSKWLEEAE — higher, -0.572 ± 0.16
- RELEKFANEFKVRRIKLGYTQTNVGEALAAVHGSEFSQTTICRFENLQISFKNACKLKAILSKWLEEAE — higher, -0.262 ± 0.064
- VELEKFANEFKVRRIKLGYTQTNVGEALAAVHGSEFSQTTICRFENLQLSFKNACKLKAILSKWLEEAE — higher, -0.441 ± 0.14
- RELEKFANEFKVRRIKLGYTQTNVPEALAAVHGSEFSQTTICRFENLQLSFKNACKLKAILSKWLEEAE — within error, -0.776 ± 0.15
- RELEKFANEFKVRRIKLGYTQTNVGEALAAVHGSEFSQTTICRFENLQLSFKAACKLKAILSKWLEEAE — higher, 0.107 ± 0.049
- RELEKFANEFKVRRIKLGYTQTNVGEATAAVHGSEFSQTTICRFENLQLSFKNACKLKAILSKWLEEAE — higher, -0.226 ± 0.098
- RELEKFANEFKVRLIKLGYTQTNVGEALAAVHGSEFSQTTICRFENLQLSFKNACKLKAILSKWLEEAE — within error, -0.72 ± 0.18
- RELEKFANEFKVRRIKLGYTQTNVGEALAAVHGYEFSQTTICRFENLQLSFKNACKLKAILSKWLEEAE — higher, -0.373 ± 0.086
- RELEKFANFFKVRRIKLGYTQTNVGEALAAVHGSEFSQTTICRFENLQLSFKNACKLKAILSKWLEEAE — higher, -0.239 ± 0.23
- RELEKFANEFKVRRIKLGYTQTNVGEALAAVHGSEFSQTTICRFENLQLSFKNACKLKAILSKWLQEAE — higher, -0.193 ± 0.086
- RVLEKFANEFKVRRIKLGYTQTNVGEALAAVHGSEFSQTTICRFENLQLSFKNACKLKAILSKWLEEAE — within error, -0.895 ± 0.18
- RELEKFANEFKVRRIKLGYTQTNVGEALAAVHGSEFSTTTICRFENLQLSFKNACKLKAILSKWLEEAE — higher, 0.277 ± 0.29
- RELEKFANEFKVRRIKLGYTQTNVGEALAAVHGSEFSQTTICRFENLQLSFKNACKLKAILSFWLEEAE — within error, -0.799 ± 0.16
- RELEKFANEFKVRRIKLGYTQTNVGEALAAVHGSEGSQTTICRFENLQLSFKNACKLKAILSKWLEEAE — within error, -1.05 ± 0.2
- RELEKFANWFKVRRIKLGYTQTNVGEALAAVHGSEFSQTTICRFENLQLSFKNACKLKAILSKWLEEAE — higher, -0.057 ± 0.085
